Substitutions are numbered along the chain they refer to. Names may count otherwise.
T1: human beta-Klotho (KLB) (human, UniProt Q86Z14 53-997)
T1 construct: Bought soluble protein; also called human KLB; ß-Klotho
T1 sequence (looked up): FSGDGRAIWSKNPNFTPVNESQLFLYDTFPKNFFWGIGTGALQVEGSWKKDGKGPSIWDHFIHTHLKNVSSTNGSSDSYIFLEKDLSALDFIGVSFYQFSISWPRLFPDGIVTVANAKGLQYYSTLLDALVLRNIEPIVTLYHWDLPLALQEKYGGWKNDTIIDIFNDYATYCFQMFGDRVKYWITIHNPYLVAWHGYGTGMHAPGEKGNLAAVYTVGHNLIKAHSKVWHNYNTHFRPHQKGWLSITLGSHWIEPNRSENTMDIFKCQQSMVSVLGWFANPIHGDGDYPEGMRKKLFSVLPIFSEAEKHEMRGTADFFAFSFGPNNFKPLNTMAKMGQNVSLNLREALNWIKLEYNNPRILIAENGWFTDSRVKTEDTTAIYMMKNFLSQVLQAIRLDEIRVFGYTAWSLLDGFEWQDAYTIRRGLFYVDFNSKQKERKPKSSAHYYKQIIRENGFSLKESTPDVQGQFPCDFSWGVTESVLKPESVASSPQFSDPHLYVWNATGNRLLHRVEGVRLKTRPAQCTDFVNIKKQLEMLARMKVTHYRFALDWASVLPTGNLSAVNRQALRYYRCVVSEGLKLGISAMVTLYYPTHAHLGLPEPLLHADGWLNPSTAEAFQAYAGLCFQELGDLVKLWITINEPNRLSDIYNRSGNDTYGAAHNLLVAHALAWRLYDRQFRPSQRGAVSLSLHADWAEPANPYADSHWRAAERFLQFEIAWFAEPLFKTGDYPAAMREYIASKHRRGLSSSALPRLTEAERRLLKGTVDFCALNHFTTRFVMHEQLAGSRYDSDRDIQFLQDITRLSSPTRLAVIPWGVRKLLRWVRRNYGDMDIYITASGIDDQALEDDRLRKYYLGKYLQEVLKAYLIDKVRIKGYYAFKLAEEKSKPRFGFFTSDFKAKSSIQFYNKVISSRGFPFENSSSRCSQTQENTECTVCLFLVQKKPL

B1: 16H7 light chain variant G28K (antibody, human IgG4 S228P, lambda, V domains shown)
VH: not shown
VL: SYVLTQPPSVSVAPGQTARITCGGNNIKSESVHWYQQKPGQAPVLVVYDDSDRPSGIPERFSGSNSGNTATLTISRVEAGDEADYYCQVWDGNSDHVVFGGGTKLTVLG
B2: 16H7 light chain variant S29G (antibody, V domains shown)
VH: not shown
VL: B1 VL with K28G, S29G
notes: copies: 2 + 2
B3: 16H7 light chain variant S29E (antibody, human IgG4 S228P, lambda, V domains shown)
VH: not shown
VL: B1 VL with K28G, S29E
B4: 16H7 light chain variant I27T (antibody, V domains shown)
VH: not shown
VL: B1 VL with I27T, K28G
notes: copies: 2 + 2
B5: 16H7 light chain variant G28S (antibody, human IgG4 S228P, lambda, V domains shown)
VH: not shown
VL: B1 VL with K28S
B6: 16H7 light chain variant G28R (antibody, human IgG4 S228P, lambda, V domains shown)
VH: not shown
VL: B1 VL with K28R
B7: 16H7 light chain variant S29C (antibody, V domains shown)
VH: not shown
VL: B1 VL with K28G, S29C
notes: copies: 2 + 2
B8: 16H7 light chain variant I27V (antibody, V domains shown)
VH: not shown
VL: B1 VL with I27V, K28G
notes: copies: 2 + 2
B9: 16H7 light chain variant I27P (antibody, human IgG4 S228P, lambda, V domains shown)
VH: not shown
VL: B1 VL with I27P, K28G
B10: 16H7 light chain variant S29F (antibody, V domains shown)
VH: not shown
VL: B1 VL with K28G, S29F
notes: copies: 2 + 2
B11: 16H7 light chain variant I27M (antibody, human IgG4 S228P, lambda, V domains shown)
VH: not shown
VL: B1 VL with I27M, K28G
B12: 16H7 light chain variant I27A (antibody, human IgG4 S228P, lambda, V domains shown)
VH: not shown
VL: B1 VL with I27A, K28G
B13: 16H7 light chain variant I27F (antibody, V domains shown)
VH: not shown
VL: B1 VL with I27F, K28G
notes: copies: 2 + 2
B14: 16H7 light chain variant S29I (antibody, human IgG4 S228P, lambda, V domains shown)
VH: not shown
VL: B1 VL with K28G, S29I
B15: 16H7 light chain variant I27N (antibody, V domains shown)
VH: not shown
VL: B1 VL with I27N, K28G
notes: copies: 2 + 2
B16: 16H7 light chain variant I27H (antibody, V domains shown)
VH: not shown
VL: B1 VL with I27H, K28G
notes: copies: 2 + 2
B17: 16H7 light chain variant G28W (antibody, human IgG4 S228P, lambda, V domains shown)
VH: not shown
VL: B1 VL with K28W
B18: 16H7 light chain variant I27R (antibody, V domains shown)
VH: not shown
VL: B1 VL with I27R, K28G
notes: copies: 2 + 2
B19: 16H7 light chain variant I27Y (antibody, human IgG4 S228P, lambda, V domains shown)
VH: not shown
VL: B1 VL with I27Y, K28G
B20: 16H7 light chain variant S29A (antibody, V domains shown)
VH: not shown
VL: B1 VL with K28G, S29A
notes: copies: 2 + 2
B21: 16H7 light chain variant I27W (antibody, human IgG4 S228P, lambda, V domains shown)
VH: not shown
VL: B1 VL with I27W, K28G
B22: 16H7 light chain variant G28P (antibody, human IgG4 S228P, lambda, V domains shown)
VH: not shown
VL: B1 VL with K28P
B23: 16H7 light chain variant G28Y (antibody, human IgG4 S228P, lambda, V domains shown)
VH: not shown
VL: B1 VL with K28Y
B24: 16H7 light chain variant I27C (antibody, human IgG4 S228P, lambda, V domains shown)
VH: not shown
VL: B1 VL with I27C, K28G
B25: 16H7 light chain variant I27Q (antibody, human IgG4 S228P, lambda, V domains shown)
VH: not shown
VL: B1 VL with I27Q, K28G
B26: 16H7 light chain variant S29D (antibody, human IgG4 S228P, lambda, V domains shown)
VH: not shown
VL: B1 VL with K28G, S29D
B27: 16H7 light chain variant G28N (antibody, human IgG4 S228P, lambda, V domains shown)
VH: not shown
VL: B1 VL with K28N
B28: 16H7 light chain variant G28L (antibody, human IgG4 S228P, lambda, V domains shown)
VH: not shown
VL: B1 VL with K28L
B29: 16H7 light chain variant S29H (antibody, V domains shown)
VH: not shown
VL: B1 VL with K28G, S29H
notes: copies: 2 + 2
B30: 16H7 light chain variant G28T (antibody, human IgG4 S228P, lambda, V domains shown)
VH: not shown
VL: B1 VL with K28T

Experiments:
human beta-Klotho (KLB) = molecular target: T1, human beta-Klotho (KLB); assay: BLI off-rate screen, supernatant;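 also: expression supernatants tested at 25 µg/mL, dissociation followed for 1800 s in D-PBS with 0.1% BSA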
[1] = molecular target: cell surface receptor composed of FGFR1c and co-receptor beta-Klotho (KLB) (human, UniProt P11362 22-822; Q86Z14 1-1044); assay: cell-based or functional assay; as to Mean E max, Luciferase reporter gene assay: reference of the scale not given here
Sequence of cell surface receptor composed of FGFR1c and co-receptor beta-Klotho (KLB) (P11362 22-822, chain 1 of 2): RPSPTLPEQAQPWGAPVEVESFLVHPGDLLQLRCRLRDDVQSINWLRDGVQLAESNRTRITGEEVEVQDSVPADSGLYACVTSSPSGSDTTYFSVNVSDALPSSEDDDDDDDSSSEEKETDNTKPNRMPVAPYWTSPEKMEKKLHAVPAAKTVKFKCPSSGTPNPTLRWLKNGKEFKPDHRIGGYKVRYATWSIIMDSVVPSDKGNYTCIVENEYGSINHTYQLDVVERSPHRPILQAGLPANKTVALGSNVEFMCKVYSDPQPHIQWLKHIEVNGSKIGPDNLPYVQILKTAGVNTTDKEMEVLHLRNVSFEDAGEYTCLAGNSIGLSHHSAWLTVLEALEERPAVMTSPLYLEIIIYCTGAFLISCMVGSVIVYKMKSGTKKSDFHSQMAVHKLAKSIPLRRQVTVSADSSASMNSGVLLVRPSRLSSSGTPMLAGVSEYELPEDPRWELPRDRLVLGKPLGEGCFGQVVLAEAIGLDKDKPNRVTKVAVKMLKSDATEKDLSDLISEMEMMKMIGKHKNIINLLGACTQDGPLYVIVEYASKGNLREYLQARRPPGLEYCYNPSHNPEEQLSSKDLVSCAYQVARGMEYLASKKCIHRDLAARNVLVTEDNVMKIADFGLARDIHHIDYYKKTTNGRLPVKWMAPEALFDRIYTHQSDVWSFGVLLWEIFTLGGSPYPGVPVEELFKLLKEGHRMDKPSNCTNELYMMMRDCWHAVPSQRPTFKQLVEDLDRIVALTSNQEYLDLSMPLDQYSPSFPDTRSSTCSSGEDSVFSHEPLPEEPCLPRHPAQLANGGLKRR
Sequence of cell surface receptor composed of FGFR1c and co-receptor beta-Klotho (KLB) (Q86Z14 whole entry, chain 2 of 2): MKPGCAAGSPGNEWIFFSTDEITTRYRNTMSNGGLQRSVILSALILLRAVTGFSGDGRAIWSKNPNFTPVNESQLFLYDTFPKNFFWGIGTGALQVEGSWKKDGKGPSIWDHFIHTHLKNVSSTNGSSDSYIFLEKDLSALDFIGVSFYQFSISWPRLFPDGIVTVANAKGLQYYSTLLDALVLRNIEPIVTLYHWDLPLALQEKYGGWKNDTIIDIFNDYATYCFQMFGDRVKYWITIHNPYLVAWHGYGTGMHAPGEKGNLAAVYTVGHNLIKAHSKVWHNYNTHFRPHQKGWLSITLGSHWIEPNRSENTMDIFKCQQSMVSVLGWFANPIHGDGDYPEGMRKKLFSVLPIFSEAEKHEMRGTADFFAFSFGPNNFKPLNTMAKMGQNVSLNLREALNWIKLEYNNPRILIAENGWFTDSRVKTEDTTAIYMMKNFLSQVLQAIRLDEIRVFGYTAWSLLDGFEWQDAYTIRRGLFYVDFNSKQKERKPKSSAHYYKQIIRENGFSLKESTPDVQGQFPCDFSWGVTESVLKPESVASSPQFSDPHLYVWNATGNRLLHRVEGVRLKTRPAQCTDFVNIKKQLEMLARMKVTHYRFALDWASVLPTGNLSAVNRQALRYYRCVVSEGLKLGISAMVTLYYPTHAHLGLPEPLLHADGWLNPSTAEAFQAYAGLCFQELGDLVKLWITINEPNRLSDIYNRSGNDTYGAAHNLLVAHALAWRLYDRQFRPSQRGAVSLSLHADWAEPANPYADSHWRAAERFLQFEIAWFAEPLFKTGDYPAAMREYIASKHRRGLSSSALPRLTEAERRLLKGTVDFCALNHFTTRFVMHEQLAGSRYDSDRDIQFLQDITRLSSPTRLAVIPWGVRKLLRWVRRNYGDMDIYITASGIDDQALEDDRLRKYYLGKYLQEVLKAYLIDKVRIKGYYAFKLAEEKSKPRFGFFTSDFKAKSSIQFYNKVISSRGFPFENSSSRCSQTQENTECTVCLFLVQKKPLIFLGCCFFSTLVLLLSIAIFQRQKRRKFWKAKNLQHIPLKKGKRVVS

Binder	koff (human beta-Klotho (KLB)) [s⁻¹]	Mean E max, Luciferase reporter gene assay [1] [%]	Mean EC50, Luciferase reporter gene assay [1] [nM]
B1	3.3e-05	108	0.149
B2	3.5e-05	98	0.09
B3	2.3e-05	114	0.102
B4	3.3e-05	97	0.152
B5	2.3e-06	109	0.14
B6	8.5e-05	102	0.138
B7	5e-05	108	0.172
B8	3.3e-05	104	0.136
B9	3.5e-06	107	0.145
B10	1.9e-05	116	0.19
B11	6e-05	97	0.087
B12	5.3e-05	107	0.111
B13	2e-05	104	0.118
B14	3e-05	107	0.14
B15	4.5e-05	96	0.162
B16	3.3e-05	100	0.098
B17	3.7e-05	96	0.142
B18	2.2e-05	105	0.131
B19	4.2e-05	96	0.116
B20	1e-05	100	0.153
B21	6.5e-05	104	0.156
B22	6.2e-05	103	0.132
B23	5.3e-05	109	0.131
B24	3.8e-05	106	0.16
B25	6.1e-05	103	0.144
B26	4.5e-05	109	0.136
B27	1.8e-05	113	0.111
B28	6.1e-06	104	0.137
B29	4.9e-05	100	0.119
B30	1.5e-06	110	0.187

— patent US20220010021A1 (Sanofi, published 2022)
